Test results: US20240343803A1 (SHANDONG SIMCERE BIOPHARMACEUTICAL, published 2024)
Where a chain is given by its changes, count along the chain named. Blank lines part the entries; values can stand above or below the binder they belong to.

Legend:
[1] = target: T1, human PVRIG-mFc protein (Acro, PVG-H5253) (human, UniProt Q6DKI7 41-171, limits assumed); assay: competition FACS; blocked: human PVRIG-mFc binding to CHO-K1-CD112 cells
T1 construct: bought reagent; also called PVRIG-ECD-mFc
T1 sequence (looked up): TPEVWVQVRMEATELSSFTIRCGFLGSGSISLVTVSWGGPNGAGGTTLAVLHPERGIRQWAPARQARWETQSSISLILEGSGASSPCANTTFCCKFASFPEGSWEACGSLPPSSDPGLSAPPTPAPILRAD
Method: After incubation, the cells were added with staining buffer (2% FBS+PBS) to stop staining, centrifuged at 350×g to remove the supernatant, washed twice and resuspended with staining buffer to a density of 1×10⁶ cells/mL. The cells were plated into a 96-well plate (50 μL of cell suspension per well) for further use. A working solution of human PVRIG-mFc protein (Acro, PVG-H5253) prepared with staining buffer, 1 μg/mL (four-fold concentration), was added into a 96-well plate (50 μL PVRIG-mFc working solution per well). […] The diluted antibodies were added to the well containing 50 μL of PVRIG-mFc. The plate was placed on a microplate shaker at 400 rpm for 1 minute to fully mix the antibodies and PVRIG-mFc proteins, and then incubated at 4° C. for 30 minutes. After the incubation, the cell suspension prepared above (100 μL) was added into the wells, gently mixed with the pipette tip and incubated at 4° C. for 30 minutes. After the incubation, the cells were washed twice with staining buffer (200 μL per well) and centrifuged at 350×g for 5 minutes to discard the supernatant. The PE goat anti-mouse IgG Fc antibody (Biolegend, 405337) was diluted 250 times with staining buffer, added into the washed wells (100 μL per well), mixed well, and stained at 4° C. for 30 minutes. After staining, the cells were washed twice with staining buffer, finally resuspended with 200 μL staining buffer and analyzed by flow cytometry (BD, Canto II). The weaker the fluorescence signal, the stronger the ability of the antibodies blocks the binding of CHO-K1 human CD112 cells to the PVRIG-mFc protein. An antibody binding curve was drawn with concentration of antibodies as the abscissa and the corresponding Mean Fluorescence Intensity (MFI) as the ordinate. The IC50 value of the antibodies and the AUC value of the binding curve were calculated by using a Four Parameter Logistic Fit (GraphPadPrism9). The smaller the IC50 value and AUC value, the stronger the ability of the antibodies competes with CHO-K1-CD112 cells to bind to human PVRIG-mFc protein.

[2] = target: T2, human PVRIG-his (AcroBiosystems, Cat NO. PVG-H52H4) (human, UniProt Q6DKI7 41-171, limits assumed); assay: competition ELISA on coated human PVRIG-his; blocked ligand human PVRL2-mFc
T2 construct: treated as the same protein; also called human PVRIG-His protein; Human PVRIG-His, Acro C227P1-9ARF1-T4
T2 sequence (looked up): T1 sequence (looked up)
Method: (§1) The ELISA plate was pre-coated with 100 μL/well of 0.5 μg/mL human PVRIG-his protein (AcroBiosystems, Cat NO. PVG-H52H4). The tested anti-PVRIG antibodies were diluted from the highest concentration of 16 nM (two-fold concentration). The diluted antibodies were mixed with 18 ng/ml human PVRL2-mFc (AcroBiosystems, Cat NO. CD2-H5257) in equal volume, added into the plate (100 μL/well), and incubated with shaking at room temperature for 2.0 hours. […] A HRP substrate, TMB (Thermo, Cat NO. 34029) was added into wells after washing the plate again for color development. After adding a termination solution to terminate the reaction, the absorbance value was read by a microplate reader (MD i3×). An inhibiting curve was drawn with concentration of antibodies as the abscissa and the corresponding OD value as the ordinate. The IC50 value was calculated by using a Four Parameter Logistic Fit (GraphPadPrism9). The smaller the IC50 value, the stronger the ability of the antibodies inhibits the binding between PVRIG and PVRL2. The positive and negative controls are the same as in Example 8.

[3] = target: T3, human PVRIG-his (AcroBiosystems, Cat NO. PVG-H52H4) (human, UniProt Q6DKI7 41-171, limits assumed); assay: ELISA, antigen coated
T3 construct: also called human PVRIG protein
T3 sequence (looked up): T1 sequence (looked up)
Method: (§2) The ELISA plate was pre-coated with 100 μL/well of 0.5 μg/mL human PVRIG-his (AcroBiosystems, Cat NO. PVG-H52H4) or cynomolgus monkey PVRIG (Novoprotein, Cat NO. C09B). The tested anti-PVRIG humanized antibodies were serially diluted (initial concentration 3 nM, 3-fold serial dilution), added into the plate (100 μL/well) and incubated with shaking at room temperature for 1.5 hours. […] A HRP substrate, TMB (Thermo, Cat NO. 34029) was added into wells after washing the plate again for color development. After adding a termination solution to terminate the reaction, the absorbance value was read by a microplate reader (MD i3×). An antibody binding curve was drawn with concentration of antibodies as the abscissa and the corresponding OD value as the ordinate. The EC50 value was calculated by using a Four Parameter Logistic Fit (GraphPadPrism9). The smaller the EC50 value, the stronger the ability of the antibodies binds to human or cynomolgus monkey PVRIG. The binding effect of the humanized antibodies was normalized to the corresponding parental antibodies. If the percentage value is higher than 100%, the binding effect of humanized antibodies is better than that of parental antibody.

[4] = target: T4, cynomolgus monkey PVRIG (Novoprotein, Cat NO. C09B) (cynomolgus monkey, UniProt A0A2K5WVV8 41-171); assay: ELISA, antigen coated
T4 construct: also called cynomolgus monkey PVRIG protein
T4 sequence: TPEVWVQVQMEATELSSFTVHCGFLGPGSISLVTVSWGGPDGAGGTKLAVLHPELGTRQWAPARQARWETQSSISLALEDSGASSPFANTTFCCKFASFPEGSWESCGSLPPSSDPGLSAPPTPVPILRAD
Method: as §2

[5] = target: T5, human PVRIG on FlpinCHO-PVRIG cells (human, UniProt Q6DKI7 41-326); assay: FACS, FlpinCHO-PVRIG cells
T5 construct: whole, on cells
T5 sequence (looked up): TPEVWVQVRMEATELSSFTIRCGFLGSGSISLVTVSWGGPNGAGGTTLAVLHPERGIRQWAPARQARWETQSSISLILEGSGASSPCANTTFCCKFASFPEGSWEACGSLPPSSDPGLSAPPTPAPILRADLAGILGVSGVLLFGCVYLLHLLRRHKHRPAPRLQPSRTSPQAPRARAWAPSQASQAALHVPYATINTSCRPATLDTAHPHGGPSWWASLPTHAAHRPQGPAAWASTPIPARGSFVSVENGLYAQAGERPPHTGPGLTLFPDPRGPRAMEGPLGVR
Method: The Ham's F12 (Gibico, 21127-022) complete medium containing 10% FBS was then added to terminate the digestion and acquire cell suspension. After counting with a cell counter (Beckman Coulter, Vi-CELL), an appropriate amount of cell suspension was centrifuged at 350×g to remove the supernatant, washed twice with PBS, stained with Zombie violet (Biolegend, 423114) and incubated at room temperature for 20 minutes. After incubation, the cells were added with staining buffer (2% FBS+PBS) to stop staining, centrifuged at 350×g to remove the supernatant, washed twice and resuspended with staining buffer to a density of 2×10⁶ cells/mL. The cells were plated into a 96-well plate (50 μL of cell suspension per well) for further use. The antibodies were diluted from the highest concentration of 46 nM (two-fold concentration) with staining buffer by 3.3-fold serial dilution. The diluted antibodies were added to the well containing 50 μL of cell suspension. The plate was placed on a microplate shaker at 400 rpm for 1 minute to fully mix the antibodies and cells, and then incubated at 4° C. for 30 minutes. After the incubation, the cells were washed twice with staining buffer (200 μL per well) and centrifuged at 350×g for 5 minutes to discard the supernatant. The PE goat anti-human IgG Fc antibody (ebioscience, 12-4998-82) was diluted 250 times with staining buffer, added into the washed wells (100 μL per well), mixed well, and stained at 4° C. for 30 minutes. After staining, the cells were washed twice with staining buffer, finally resuspended with 200 μL staining buffer and analyzed by flow cytometry (BD, Canto II). The stronger the signal, the stronger the ability of the antibodies binds to PVRIG. An antibody binding curve was drawn with concentration of antibodies as the abscissa and the corresponding Mean Fluorescence Intensity (MFI) as the ordinate. The AUC value of the curve was calculated by using a Four Parameter Logistic Fit (GraphPadPrism9). The stronger the AUC value, the stronger the ability of the antibodies binds to FlpinCHO-PVRIG and FlpinCHO-cyno PVRIG. […] The binding activity of the antibodies was normalized to the positive control COM701-hIgG1 and SRF813-hIgG1.

[6] = target: T3, human PVRIG-his (AcroBiosystems, Cat …); assay: competition ELISA, PVRIG-His coated, competitor human PVRL2-mFc; design: AUC: unit not given here
Method: as §1
The methods refer to Example 11. The inhibiting activity of the humanized antibodies was normalized to the corresponding parental antibodies. If the percentage value is higher than 100%, the inhibiting effect of humanized antibodies is better than that of parental antibodies.

[7] = target: T3, human PVRIG-his (AcroBiosystems, Cat …); assay: SPR (BIAcore), antibody captured on Protein A chip, human PVRIG-His analyte
Method: Biacore was used to detect the specific binding between anti-PVRIG antibody and human PVRIG protein. Protein A chip was used in the BIAcore assay. The time required for the chip to capture the diluted antibody and saturate the binding antigen to reach Rₘₐₓ (Maximum binding capacity, 50 RU) was measured by manual run. […] The affinity of antibody for antigen was measured by multi-cycle kinetics. In each cycle, the antibodies were injected prior to the injection of gradient concentraions of PVRIG proteins allowing the occurrence of antibody-antigen association and dissociation After each cycle, the Protein A chip was regenerated by Glycine, pH 1.5 (to remove the proteins on the chip). The affinity of antibody for antigen was calculated by BIAcore T200 analysis software.
The methods refer to Example 10.

IC50 (read off the curve) [1]: ~1 nM
IC50 (read off the curve) [2]: ~2 nM
B1: PVRIG-A15 (VHH)
VHH: QVQLVESGGGLVQAGGSLRLSCVASGRTFSANTMAWFRQAPGKEREFVAYTRWTDDNTDYASYADFVKGRFTAFRDNTRNTMYLQMNRLRPEDTAVYYCAAATTRGTYYSAGDYNSWGQGTQVTVSS
notes: tested as VHH-hinge-CH2-CH3 (human IgG1-Fc); not shown: human IgG1 hinge-CH2-CH3

IC50 (read off the curve) [1]: ~1 nM
IC50 (read off the curve) [2]: ~1 nM
B2: PVRIG-A113 (VHH)
VHH: QLQLVESGGGLVQSGGSLRLSCAASGRTRSMYVMGWFRQAPGKEREFVGRIKWSGDTTYTSYADFVKGRFTLYGNQARNTVYLQMNSLKPEDTAVYYCAALPSDYDYRAASYGVDYWGKGTLVTVSS
notes: as for B1

IC50 (read off the curve) [1]: ~1 nM
IC50 (read off the curve) [2]: ~2 nM
B6: PVRIG-A30 (VHH)
VHH: QVQLVESGGGLVQPGGSLRLSCAASGRTDSMNVMGWFRRAPGKEREFVARIKWNGDTTYTAYADFLKGRFTLYGAVARNRVYLQMNSLQPEDTAVYYCAAGEVSGSSYSPDYGMHYWGKGTLVTVSS
notes: as for B1

Further lines, the binder ahead of its results:

B3: PVRIG-A105-H3a (Fc fusion)
chain: EVQLVESGGGLVQPGGSLRLSCAASGRTFDRHTMTWFRQAPGKEREFVATASRIPGDTYYVDSVKGRFTISRDNAKNSVYLQMNSLRAEDTAVYYCAATSAYSSEVDSYEKGSWYDNWGQGTMVTVSS
notes: humanized variant of PVRIG-A105; also called A105.VH3a; not shown: constant part not restated for the humanized forms; parents are VHH-hinge-CH2-CH3 of human IgG1; detected by anti-human
% relative activity parental antibody/tested antibody [3]: 0.99%
EC50 [3]: 7.41 nM
% relative activity parental antibody/tested antibody [4]: 2.53%
EC50 [4]: 1.27 nM
AUC % to COM701-hIgG1 [5]: 15.9%
AUC % to SRF813-hIgG1 [5]: 23.9%
AUC % to parental Ab [5]: 12.8%
% relative activity (AUC) parental antibody/test antibody [6]: 47.2%
AUC [6]: 5.37

B4: PVRIG-A105-H2 (Fc fusion)
chain: B3 chain with V79L, S103C, S108C
notes: humanized variant of PVRIG-A105; also called A105 VH2; not shown: constant part not restated for the humanized forms; parents are VHH-hinge-CH2-CH3 of human IgG1; detected by anti-human
EC50 [3]: 0.0515 nM
EC50 [4]: 0.0343 nM
% relative activity (IC50) parental antibody/test antibody [6]: 128%
IC50 [6]: 0.577 nM
Kd [7]: 0.693 nM
koff [7]: 0.00092 s⁻¹
kon [7]: 1.33e+06 M⁻¹ s⁻¹

B5: PVRIG-A105-H5 (Fc fusion)
chain: B3 chain with V79L, S103C, S108C, T122I, M123Q
notes: humanized variant of PVRIG-A105; also called A105.VH5; not shown: constant part not restated for the humanized forms; parents are VHH-hinge-CH2-CH3 of human IgG1; detected by anti-human
EC50 [3]: 0.0678 nM
EC50 [4]: 0.0377 nM
% relative activity (IC50) parental antibody/test antibody [6]: 114%
IC50 [6]: 0.647 nM
Kd [7]: 0.818 nM
koff [7]: 0.00091 s⁻¹
kon [7]: 1.11e+06 M⁻¹ s⁻¹

B7: PVRIG-A60 (VHH)
VHH: QVQLVESGGGLVQSGGSLRLSCAASGRTRSMYVMGWFRQAPGKEREFVGRIKWSGDTTYTSYADFVKGRFTLYGNQARNTVYLQMNSLKPEDAAVYYCNLRRLDGVNYWGKGTLVTVSS
notes: as for B1
IC50 (read off the curve) [1]: ~1 nM
IC50 (read off the curve) [2]: ~1 nM
